# Laboratory results published in the nanobody polyreactivity screen of Harvey et al. (2022).
# Experiment: yeast display, Sf9 membrane polyspecificity reagent, FACS + sequencing; frameworks hold sequencing errors
# In short: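 Galactose induction of a Saccharomyces cerevisiae BJ5465 synthetic nanobody display library ran 36–48 hours. The cells were then stained for 1 hour at 4 °C with 10% biotinylated, detergent-solubilized Sf9 membrane reagent, pulled down on streptavidin microbeads and FACS-sorted into low and high (top ~1%) gates on expression and reagent-binding fluorescence. Labels for polyreactivity follow the gate of origin.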
row,Sequence,polyreactivity (PSR sort gate)
1,QVQLVESGGGLVQAGGSLRLSCAASGSTFTFYFMGWYRQAPGKERELVAAITASGGSTYYADSVKGRFTISRDNAKNTVYLQMNSEKPEDTAVYYCAARPTYYYSRTYDYWGQGTQVTVSS,low polyreactivity
2,QDQLVESGGGLVQAGGSLRLSCAASGYIFRIYAMGWYRQAPGKERELVATITNGGSTHYADSVKGRFTISRDNAKNTVYLQMNSLKPEDTAVYYCAADLLYSEYDYWGQGTQVTVSS,high polyreactivity
3,QVQLVESGGGLVQAGGSLRLSCAASGRTFYSNAMGWYRQAPGKERELVAGISKRGTITYYADSVKGRFTISRDNAKNTVYLQMNSLKPEDTAVYYCAVGRPSGWSYYTGGDYWGQGTQVTVSS,high polyreactivity
4,QVQLVESGGGLVQAGGSLRLSCAASGITLFHYVKGWYRQAPGKERELVADITWRGGNTFYADSVKGRFTISRDNAKNTVYLQMNSLKPEDTAVYYCAVRQAYRTRDYDYWGQGTQVTVSS,high polyreactivity
5,QVQLVESGGGLVQAGGSLRLSCAASGYIFARYAMGWYRQAPGTERELVARITTGDSTYYADSVKGRFTISRDNAKNTVYLQMNSLKPEDTAVYYCAADDNVSVVGLYYWGQGTQVTVSS,low polyreactivity
6,QVQLVESGGGLVQAGGSLRLSCVSSGFTFYFYAMGWYRQPPGKEREFVATITSNGGSTYYADSVKGRFTISRDNAKNTDYLQINSLKPEDTAVYYCNAGRYVRWWWYSPDDYWGQGTQVTVSS,high polyreactivity
7,QVQLVESGGGLVQAGGSLRLSCAASGITFKPYGMGWYRQAPGKERELVATISWSGGSTNYADSVKGRFTISRDNAKNTVYLQMNILKPEDTAVYYCAATSYSHTEIRYDYWGQGTQVTVSS,low polyreactivity
8,QVQLVESGGGIVQAGGSLRLSCAASGIIFHFNDMGWYRQAPGKERELVAAITSGGSTNYADSVKGRFTISRDNAKNTVDLQMNSLKPEDTAVYYCAARRGLRLFAYRHGYWGQGTQVTVSS,low polyreactivity
9,QVQLVESGGGLVQAGGRLRLSCAASGYTFRRNAMGWYRQAPGKERELVAAITWRGTSTYYADSVKGRFTISRDNAKNTVYLQMNSLKPEDTAVYYCAARFYSGPGGYTMYYWGQGTQVTVSS,high polyreactivity
10,QVQLVESGGRLVQAGGSLRLSCDASGRTSRRNAMGWYRQAPGKERELVAGITWRGGSTYYADSVKGRFTISRDNAKNTVYLQMNSLKPEDPEVYYCAAYTYPHEYDYWGQGTQVTVSS,low polyreactivity
11,QVQLVESGGGLVQAGGSLRLRCAASGSTFQRYAMGWYRQAPGKERELVAAITWSGGSTKYADSVKGRFTISRDNAKTTVYLQMNCLKPEDTAVYYCARTYLSSRWGQGTQVTVSS,low polyreactivity
12,QVQLVESGGGLVQAGGSLRLSCAASGYILRSHAMGWYRQAPGKEWEFVAAITYSGGSTYYADSVKGRFTISRDNAKNTVYLQLNSLKPEVTAVYYCSKTTRYPRGYGYWGQGTQVTVSS,low polyreactivity
13,QVQLVESGGGLVQAGGSLRLSCAASGIIFQRNDMGWYRQAPGKERELVANIRDGGITYADSVKGRFTISRDNAKNTVYLQMNSLKPEDTAVYYCARDDTSPGYGDQSSNAAYYYWGQGTQVTVSS,low polyreactivity
14,QVQLVESGGGLVQAGGSLRLSCAASGRIFLPYAMGWYRQAPGKERELVAVITGRGGSTYYADAVKGRFTISRDNAKNTVYLQMNSLQPEDTAVYYCAAAYYRGRGYYWGQGTQVSVSS,high polyreactivity
15,QEQLEESGGGLVQAGGSLRLSCAASGRIFAAYAKGWYRPAPGKEREVVAGITRTGGSTYYADSVKGRFTISRDNAKNTVYLQMNSLKPEDTAVYYCAARWIWRGYDYWGQGTKVTVSS,high polyreactivity
16,QVQLVESGGGLVQAGGSLRLSCAASGRIFTVYAMGWYRQAPGKERELVAAISGRGGRTYYADSVKGRFTISRDNAKNTVYLQMNSLTPEDTAVYYCADYSYVRSSYEVEYDYWGQGTQVTVSS,low polyreactivity
17,QVQIVESGGGLVQAGGSLRFSCAASGRIFIYNAMGWYRQAPGKERELVAAISRTGGRTYYADSVKGRFTISRDISKNTVYLQMNSLKPEDTAVYYCAARNRGQYYSWGQGTQLTVSS,high polyreactivity
18,QVQLVESGGGLVQAGGSLRLSCAASGRIFTGNAMGWYRQAPGKERELVATISTGGSTNYADSVKGRFTISRDNAKNTVYLQMNSLKPEDTAVYYCAADTYYGYIIHVEYWGQGTQVTVSS,low polyreactivity
19,QVQLVESGGGLVQAGGSLRLSCAASGRILFSYGAMGWYRQAPGKERELVAAISYSGGSTYYADSVKGRFTISRDNAKNTVYLQMNSLKPEDTAVYYCAASSIVYRHYYWGQGTQVTVSS,high polyreactivity
20,QVQLVESGGGLVQAGGSLRLSCAASGSTFNINAMGWYRPAPRKERELVARIRASGASTYYADSVKGRFTISRDNAKITVYLQMNSLKPDDTAVYYCAAYTYSFRANHDYWGQGTQVTVSS,high polyreactivity
21,QVKLVESCGGLVQAGGSLRLSCAASGFIFRNYAMGWYRQARGKERELVAAIDYSVGSTNYADSVKWRFTISRDNAKNTVYLQMNSLKPEDTAVYYCNAEYTWHRGYDYFGQGTQVTVSS,low polyreactivity
22,QVQLVESGGGLVQAGGSLRLSCAASGLTFTVYGMGWSRQAPGKEREFVATISRRGGRTYYADSVKGRFTISRDNAKNTVYVLLNSLKPEDTAVYYCNADIGTYVRSGGGDYWGQGTQVTVSS,low polyreactivity

row,Sequence,polyreactivity (PSR sort gate)
1,QVQLVESGGGLVQAGGSLRIRCAASGSTFKTYTMGWYRQAPGKERELVAGITSGGSTSYADSVKGRFTISRDNAKNTVYLQMNSLKPEVTAVYYCAAAEGGGLVTYDYCGQGTQVTVSS,low polyreactivity
2,QVQLVESGVGLVQAGGSLRLSCAASGRIFTYYAMGWYRQAPGKERELVAVISSVGGTYYADSVKGRFTISRDNAKNTVYLQMNSLKPEDTAVYYCAVGKIWSRRSSTSRFGYWGQGTQVTVSS,high polyreactivity
3,QVQLVESGGGLVQAGCSLRLICAASGSISYHNAKGWYRQAPAKEREWVAANSGDGDSTYYADSVKVRFTISRDNAKHTVYLQMNTLKPEDSAVYYSAAEPTVYFSDFVLFPSDFWGQGTQVTVSS,low polyreactivity
4,QVQLVESGGGLVQAGGSLRLSCAASGSTFIDYAMGWYRQAPGKDRELVAAITWSGSSTYYADSVKGRFTISRDNAKNTVDLQMNSLKPEDTAVYYCAARYWYQSYHTYGYYSWGQGTQVTVSS,low polyreactivity
5,QVQLVESGVGLVQAGGSLRLSCAASGRIFNRNAMGWYRQAPGKERELVAAISHSVGSTYADSVKGRFTLSRDNAKNTVYLQMNSLKPEDTAVYYCAAKYYFEWNSALDYWGQGTQVTVSS,low polyreactivity
6,QVQLVESGGGLVQAGGSLRLSCADSGRTFYVNAMGWYRQAPGKEREFVAAISRRGGSTYYADSVKGRFTISRDNAKNTVYLQMNSLKPEDTAVYYCIAAYSSRYDYWGQGTQVTVSS,high polyreactivity
7,QVQLVESGGGLVQAGGSLRLSCAASGSTLRFYAMGWYRQAAGKERELVADITYRGGSTYYADSVKGRFTISRDNAKNTVYLQMNSLKPEDTAVDYCAKQRSYSSKFDYWGQGSQVTVSS,high polyreactivity
8,QVQLVESGRGLVQAGGSLRLSCAASGRILDSNAMGWDRQAPGKESELVAAITWRGGSTYYADSVKGRFTISRDNAKNTVYLQMNSLKPEDTAVYYCNARWSKTAHTRFGYWGQGTQVTVSS,low polyreactivity
9,QDQLVESGGGLVQAGGSLRLSCAASGRTYASNAMGWYRQAPGKERELVAAITYSGSSTYYADSVKGRFTISRDNAKNTVYLQMNSLKPEDTAVYYCGKGGRRWTYKTWKGYDYWGQGTQVTVSS,high polyreactivity
10,QVQLVESGGGLVQAGGSLRLSCAASGRIFPWYSMGWYRQAPGKERELVAAISSSGGRTYYADSVKGRFTISRDNAKNTVYLQMNSLKPVDTAVYYCAADRRYISQRTYNYWGQGTQVTVSS,high polyreactivity
11,QVQLVESGGGLVQAGGSLRLSCAASGITFEVYDMGWYRQAPGKERELVAAITWSAGRTYYADSVKGRFTISRDNAKNTVYLQMNSLKPEDTAVYYCAAEVYYYYRTYSYIWNRVDYDYWGQGTQVTVSS,low polyreactivity
12,QLQLVESGGGLVQAGGSLRLSCAASGSTFWSNTMGWYRQAPGKERELVATITDSGGITYYADSVKGRFTISRDNAKNTVYLQMNSLKPEDTAVYYCNVRKTWYGYSVTGRYDYWGQGTQVTVSS,low polyreactivity
13,QVQLVESGGGLVQAGGSLRLSCAASGRTFVKYAMGWYRQAPGKERELVAAISWSGGSTYYADSVKGRFTISRDNAKNTVYLQMNSLKPEDTAVYYCNTAQRYRVYRYDYWGQGTQVTVSS,high polyreactivity
14,QVQLVESAGGLVQAGGSLRITCAASGINFTFYTMGWYRQAPGKERELVAAITWSGGSTNYADSVKGRFTISRDNAKNTVYLQMNSLKPEDTAVYYCAAQGYPQSPPWEDYWGQGTQVTVSS,low polyreactivity
15,QFQLVESGGGLVQAGGSLRLSCAASGFIFAVNAMGWYRQAPGKERELVAAISSSGTTNYADSVKGRFTISRDNAKNTVYLQMNSLKPEDTAVYYCNKRWRDKYPQYDYWGQGTQVTVSS,low polyreactivity
16,QVQLGESGGGLVQAGGSLRLSCAASGSTFNRYAMGWYIQAPGKERELVAAITVRGNTYYADSVKGRFTISRDNAKNTVDVQMNSVKPEDTAVYYCNAVSASPSYVYRPYFKRGYWGQGTQGTVSS,high polyreactivity
17,QVQLVESGGGLVQAGGSLRLSCAASGLIFLYNAMGWYRQAPGKERELVAAISSGGGRTYYADSVKGRFTISRDNAKNTVYLQMNSLKPEDTAVYYCNVASYAKKRWTMDYWGQGTQVTVSS,high polyreactivity
18,QVQLVESGGGLVQAGGSLRLSCAASGRIFYYNTMGWYRQAPGKERELVARITQRGGRTYYADSVKGRFTISRDYAKNTVYLQMNSLKPVDTAVYYFNAKVRGTNTAGVDYWGQGTQVTVSS,high polyreactivity
19,QVQLVESGGGLVQAGGSLRLSCAASGLTFDVYTMVWYRQAPGKERELVATISETYYADSVKGRFTISRDNAKNTVYLQMNSLKPEDTAVYYCAANGFKAQYRDIVYDYGYWGQGTQVTVSS,low polyreactivity
20,QVQLVESGGGLVQAGGSLRLSCAASGSIFYGYDMGWYRQAPGKERELVAAISRSGGSTYYADSVKGRFTISRDNAKNTVYLQMNSLKPEDTAVSYCNAYPVTFVYYVGDGYWGQGTQVTVSS,high polyreactivity
21,QLQLVESGGALVQAGGSLRFSCAASARTYGKNAMGWYRQAPGKERELDAAITWSGSSTYYADSVKGRFTISRHNAKNTVYLQMNSLKAEDTAVYYCAKEDWQLDYTVTWRKMDSWGQVTQVTVSS,low polyreactivity
